Test results taken from patent publication US20260207704A1, “STAPLED PEPTIDES AND METHODS THEREOF” (priority 2022, published 2026).
*1 amine or outer side, *2 acyl side, *3 side chain or, on linkers, in order; H or OH if unused. Bridges are numbered along the chain shown (N, C = ends). Primed or numbered codes have the meaning given here. [ ]: non-standard residue; d: D form. PyrS2(6) = (S)-3-amino-1-((pent-4-en-1-yloxy)carbonyl)pyrrolidine-3-carboxylic acid, stapled with another olefin-containing amino acid residue through the olefin group, O=C(OCCCC=[*:3])N1CC[C@@](N[*:1])(C(=O)[*:2])C1; B5(4) = 2-amino-2-(pent-4-en-1-yl)hept-6-enoic acid, stapled through each of its two olefin groups with other olefin-containing amino acid residues, O=C(C(CCCC=[*:3])(CCCC=[*:4])N[*:1])[*:2]; PyrS2″ = (S)-3-amino-1-((pent-4-en-1-yloxy)carbonyl)pyrrolidine-3-carboxylic acid (olefin stapling residue), C=CCCCOC(=O)N1CC[C@@](N[*:1])(C(=O)[*:2])C1; PyrS2 = (S)-3-amino-1-((pent-4-en-1-yloxy)carbonyl)pyrrolidine-3-carboxylic acid, olefin staple residue, C=CCCCOC(=O)N1CC[C@@](N[*:1])(C(=O)[*:2])C1; PyrS2(5) = (S)-3-amino-1-((pent-4-en-1-yloxy)carbonyl)pyrrolidine-3-carboxylic acid, C=CCCCOC(=O)N1CC[C@@](N[*:1])(C(=O)[*:2])C1; B5″ = 2-amino-2-(pent-4-en-1-yl)hept-6-enoic acid (bis-olefin stapling residue), C=CCCCC(CCCC=C)(N[*:1])C(=O)[*:2]; B5(5) = 2-amino-2-(pent-4-en-1-yl)hept-6-enoic acid (two olefin arms), C=CCCCC(CCCC=C)(N[*:1])C(=O)[*:2]; 2F3MeF(3) = aromatic amino acid residue, Cc1cccc(C[C@H](N[*:1])C(=O)[*:2])c1F; 2F3MeF″ = aromatic residue, Cc1cccc(C[C@H](N[*:1])C(=O)[*:2])c1F; Phe(3-COOH) = N[C@@H](Cc1cccc(C(=O)O)c1)C(=O)O; 2F3MeF = Cc1cccc(C[C@H](N[*:1])C(=O)[*:2])c1F; Bta = N[C@@H](Cc1csc2ccccc12)C(=O)O; Lys(iPr) = CC(C)NCCCC[C@H](N)C(=O)O; αAllylPro = C=CC[C@@]1(C(=O)O)CCCN1; BztA = aromatic amino acid residue; 4mampiperidine = not defined here; tBuAla = CC(C)(C)C[C@H](N)C(=O)O; 3Thi = N[C@@H](Cc1ccsc1)C(=O)O; Cha = N[C@@H](CC1CCCCC1)C(=O)O; TriAzLys(3) = not defined here; hSer = N[C@@H](CCO)C(=O)O; BztA″ = aromatic residue; Nle = CCCC[C@H](N)C(=O)O; Orn = NCCC[C@H](N)C(=O)O; TfeGA = not defined here; AsnR = not defined here; GlnR = not defined here; sAla = not defined here; PL3 = not defined here; B5 = not defined here

B1: I-131 (peptide)
peptide: Ac-[αAllylPro]D[tBuAla][B5]D[Phe(3-COOH)][GlnR]AFL[PyrS2″][2F3MeF″][BztA″][GlnR](29N2spiroundecane)A-NH2
modifications: reading uncertain; also: staple links not given here, printed as Ac-PL3-Asp-Npg-B5-Asp-3COOHF-GlnR-Ala-Phe-Leu-PyrS2-2F3MeF-BztA-[29N2spiroundecane]GlnR-Ala-NH2
B2: I-27 (peptide)
peptide: Ac-[αAllylPro]D[tBuAla][B5(4)]D[Phe(3-COOH)][sAla]AF[TriAzLys(3)][PyrS2(6)][3Thi][Bta]Q-NH2
modifications: triazole 7-10; not fully specified (bridges); printed as Ac-PL3-Asp-Npg-B5-Asp-3COOHF-sAla*3-Ala-Phe-TriAzLys*3-PyrS2-3Thi-BztA-Gln-NH2; reading uncertain
B3: I-87 (peptide)
peptide: Ac-[PL3]D[tBuAla][B5][hSer][Phe(3-COOH)]SAFK[PyrS2(5)][3Thi][BztA][GlnR]A-NH2
modifications: staple 1-4 (inferred); bridge 10-14; not fully specified (residue 10, bridges); printed as Ac-PL3-Asp-Npg-B5-Hse-3COOHF-Ser-Ala-Phe-Lys*3-PyrS2-3Thi-BztA-GlnR*3-Ala-NH2; reading uncertain; also: Lys10 and GlnR14 marked *3
B4: I-94 (peptide)
peptide: Ac-[αAllylPro]D[tBuAla][B5(4)]D[Phe(3-COOH)][GlnR](4aminopiperidine)AFL[PyrS2″][2F3MeF(3)][BztA][GlnR]A-NH2
modifications: staple 1-4 (inferred); not fully specified (bridges); printed as Ac-PL3-Asp-Npg-B5-Asp-3COOHF-[4aminopiperidine]GlnR-Ala-Phe-Leu-PyrS2-2F3MeF-BztA-GlnR-Ala-NH2; reading uncertain
B5: I-149 (peptide)
peptide: Ac-[αAllylPro]N[Cha][B5″]DQ[Lys(iPr)]AF[GlnR][PyrS2″]F[Bta]K-NH2
modifications: bridge 10-14; reading uncertain; also: PL3-B5 and PyrS2 links not placed, printed as Ac-PL3-Asn-Cha-B5-Asp-Gln-iPrLys-Ala-Phe-GlnR*3-PyrS2-Phe-BztA-Lys*3-NH2
B6: I-117 (peptide)
peptide: Ac-[αAllylPro]D[tBuAla][B5″]N[TfeGA]AAFK[PyrS2″][2F3MeF][Bta][GlnR]A-NH2
modifications: bridge 10-14; not fully specified (bridges); reading uncertain; also: Lys*3 and GlnR*3 marked *3
B7: I-83 (peptide)
peptide: Ac-[PL3]D[tBuAla][B5][hSer][Phe(3-COOH)]AAFK[PyrS2″][3Thi][BztA][GlnR]A-NH2
modifications: staple 1-4 (inferred); bridge 10-14; not fully specified (residue 10, bridges); printed as Ac-PL3-Asp-Npg-B5-Hse-3COOHF-Ala-Ala-Phe-Lys*3-PyrS2-3Thi-BztA-GlnR*3-Ala-NH2; reading uncertain
B8: I-143 (peptide)
peptide: Ac-[αAllylPro]N[tBuAla][B5]D[Phe(3-COOH)][Nle]AFK[PyrS2″][2F3MeF″][BztA″][GlnR]LS-NH2
modifications: bridge 10-14; not fully specified (bridges); printed as Ac-PL3-Asn-Npg-B5-Asp-3COOHF-nLeu-Ala-Phe-Lys*3-PyrS2-2F3MeF-BztA-GlnR*3-Leu-Ser-NH2; reading uncertain; also: Lys10 and GlnR14 marked *3
B9: I-41 (peptide)
peptide: Ac-[αAllylPro]D[tBuAla][B5(5)]D[Phe(3-COOH)]AAF[AsnR][PyrS2(5)][3Thi][Bta][Orn]-NH2
modifications: bridge 10-14; reading uncertain; also: PL3/B5/PyrS2 staple links not placed, printed as Ac-PL3-Asp-Npg-B5-Asp-3COOHF-Ala-Ala-Phe-AsnR*3-PyrS2-3Thi-BztA-Orn*3-NH2
B10: I-142 (peptide)
peptide: Ac-[αAllylPro]N[tBuAla][B5]D[Phe(3-COOH)]AAFK[PyrS2(5)][2F3MeF″][BztA″][GlnR]LS-NH2
modifications: bridge 10-14; not fully specified (bridges); printed as Ac-PL3-Asn-Npg-B5-Asp-3COOHF-Ala-Ala-Phe-Lys*3-PyrS2-2F3MeF-BztA-GlnR*3-Leu-Ser-NH2; reading uncertain; also: Lys10 and GlnR14 marked *3
B11: I-148 (peptide)
peptide: Ac-[αAllylPro]N[Cha][B5″]DQ[hSer]AF[GlnR][PyrS2″]F[Bta]K-NH2
modifications: bridge 10-14; reading uncertain; also: PL3-B5 and PyrS2 links not placed, printed as Ac-PL3-Asn-Cha-B5-Asp-Gln-Hse-Ala-Phe-GlnR*3-PyrS2-Phe-BztA-Lys*3-NH2
B12: I-36 (peptide)
peptide: Ac-[αAllylPro]D[tBuAla][B5(5)]D[Phe(3-COOH)]AAF[AsnR][PyrS2(5)][3Thi][Bta]K-NH2
modifications: bridge 10-14; not fully specified (bridges); printed as Ac-PL3-Asp-Npg-B5-Asp-3COOHF-Ala-Ala-Phe-AsnR*3-PyrS2-3Thi-BztA-Lys*3-NH2; reading uncertain
B13: I-96 (peptide)
peptide: Ac-[αAllylPro]D[tBuAla][B5(4)]D[Phe(3-COOH)][GlnR]AFL[PyrS2″][2F3MeF(3)][BztA][GlnR](4mampiperidine)A-NH2
modifications: staple 1-4 (inferred); not fully specified (bridges); printed as Ac-PL3-Asp-Npg-B5-Asp-3COOHF-GlnR-Ala-Phe-Leu-PyrS2-2F3MeF-BztA-[4mampiperidine]GlnR-Ala-NH2; reading uncertain
B14: I-134 (peptide)
peptide: Ac-[αAllylPro]D[tBuAla][B5]D[Phe(3-COOH)][GlnR]AFL[PyrS2][2F3MeF][Bta][GlnR](29N2spiroundecane)A-NH2
modifications: staple 1-4, 4-11 (inferred); not fully specified; printed as Ac-PL3-Asp-Npg-B5-Asp-3COOHF-GlnR-Ala-Phe-Leu-PyrS2-2F3MeF-BztA-[29N2spiroundecane]GlnR-Ala-NH2; reading uncertain; also: staple C=C reduced to CH2-CH2

Target: beta-catenin (human)
Sequence (B6V8E6 146-665 limits assumed): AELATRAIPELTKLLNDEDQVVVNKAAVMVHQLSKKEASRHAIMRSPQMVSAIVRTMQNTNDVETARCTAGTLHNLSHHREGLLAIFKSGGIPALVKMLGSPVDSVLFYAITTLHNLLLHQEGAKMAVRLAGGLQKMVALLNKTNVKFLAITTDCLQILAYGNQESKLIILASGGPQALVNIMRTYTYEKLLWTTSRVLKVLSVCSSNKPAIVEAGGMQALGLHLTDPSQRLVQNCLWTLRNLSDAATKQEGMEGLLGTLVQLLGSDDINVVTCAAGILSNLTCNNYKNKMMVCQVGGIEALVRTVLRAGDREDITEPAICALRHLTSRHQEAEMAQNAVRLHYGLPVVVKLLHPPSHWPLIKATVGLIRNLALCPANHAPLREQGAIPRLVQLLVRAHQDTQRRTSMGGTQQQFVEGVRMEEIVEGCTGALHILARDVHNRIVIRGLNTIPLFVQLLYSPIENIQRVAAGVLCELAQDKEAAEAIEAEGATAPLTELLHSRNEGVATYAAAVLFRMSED
Assay: fluorescence polarization; bin >200 nM
Conditions: not given

Molecule | IC50 [nM]
B1 | < 750
B2 | < 750
B3 | < 750
B4 | < 750
B5 | < 750
B6 | < 750
B7 | < 750
B8 | < 750
B9 | < 750
B10 | < 750
B11 | < 750
B12 | < 750
B13 | < 750
B14 | < 750

Target: beta-catenin (human)
Assay: cell-based or functional assay
Conditions: not given

Molecule | NanoBRET Abs IC50 [nM] | NanoBRET Abs IC50 (bin >3.0 uM) [nM]
B1 | > 10000 | –
B5 | > 10000 | –
B8 | > 10000 | –
B10 | – | < 10000
B14 | > 10000 | –

Tested on: COLO320DM cells
Assay: COLO320DM proliferation assay
Assay type: cell-based, human
Conditions: read-out: COLO320DM Proliferation Abs IC50
Method: Various technologies can be utilized to assess technologies of the present disclosure. For example, in some embodiments, solubility, LogD, interactions with targets, etc. of various agents such as stapled peptides were assessed using technologies described in WO 2022/261257 (e.g., those in its Examples). In some embodiments, solubility, shake flask LogD, and binding to beta-catenin were assessed. In some embodiments, an assay for assessing interactions, e.g., with beta-catenin, was fluorescence polarization as described in WO 2022/261257. In some embodiments, an assay was Nano-BRET target engagement assay that assessed beta-catenin/TCF4 engagement as described in WO 2022/261257. In some embodiments, an assay was a reporter assay as reported in Example 4 of WO 2022/261257. In some embodiments, an assay was a COLO320DM proliferation assay as reported in Example 4 of WO 2022/261257.
Among other things, provided technologies can inhibit proliferation of various cells including various cancer cells. In some embodiments, provided technologies modulate WNT specific transcription. In some embodiments, provided technologies induce cell cycle arrest. In some embodiments, provided technologies induce G1 cell cycle arrest. In some embodiments, provided technologies increased proportion of cells in G1 phase of cell cycle. As confirmed in FIG. 3, provided technologies can inhibit proliferation of COLO320DM, which is a colorectal cell line comprising various mutations such as APC, TP53, etc., modulate WNT specific transcription such as of AXIN2 and CXCL12, and induce G1 cell cycle arrest. In some embodiments, it was confirmed that provided technologies can reduce proportion of cells in S phase of cell cycle.

Molecule | IC50 [nM]
CC(=O)N1CCC[C@]12CC=CCCCC1(CCCC=CCCCOC(=O)N3CC[C@@]4(C3)NC(=O)[C@H](CCCCNC(=O)CC[C@@H](C(=O)N[C@@H](C)C(N)=O)NC(=O)[C@H](Cc3csc5ccccc35)NC(=O)[C@H](Cc3ccsc3)NC4=O)NC(=O)[C@H](Cc3ccccc3)NC(=O)[C@H](C)NC(=O)C(C)(C)NC(=O)[C@H](Cc3cccc(C(=O)O)c3)NC(=O)[C@H](CC(=O)O)NC1=O)NC(=O)[C@H](C1CCCCC1)NC(=O)[C@H](CC(=O)O)NC2=O (single isomer, unassigned) [I-253, Ac-PL3-Asp-Chg-B5-Asp-3COOHF-Aib-Ala-Phe-Lys*3-PyrS2-3Thi-BztA-GlnR*3-Ala-NH2] | ≤ 10000
CC(=O)N1CCC[C@]12CC=CCCCC1(CCCC=CCCCOC(=O)N3CC[C@@]4(C3)NC(=O)[C@H](CCCCNC(=O)CC[C@@H](C(=O)N[C@@H](C)C(N)=O)NC(=O)[C@H](Cc3csc5ccccc35)NC(=O)[C@H](Cc3ccccc3C)NC4=O)NC(=O)[C@H](Cc3ccccc3)NC(=O)[C@H](C)NC(=O)C(C)(C)NC(=O)[C@H](Cc3cccc(C(=O)O)c3)NC(=O)[C@H](CC(=O)O)NC1=O)NC(=O)[C@H](CC(C)(C)C)NC(=O)[C@H](CC(=O)O)NC2=O (relative stereo) [I-294, Ac-PL3-Asp-Npg-B5-Asp-3COOHF-Aib-Ala-Phe-Lys*3-PyrS2-2MeF-BztA-GlnR*3-Ala-NH2] | ≤ 10000
